Patent publication US20230031280A1, “GLP-2 FUSION POLYPEPTIDES AND USES FOR TREATING AND PREVENTING GASTROINTESTINAL CONDITIONS” (SHIRE-NPS PHARMACEUTICALS, INC., priority 2017, published 2023)

Assays:
[1] = Projection of intravenous and subcutaneous PK parameters for humans; design: species or system human
Procedure: While a dose of 30 μg/kg once weekly (QW) is projected from the cynomolgus monkey PK data, the dose should be ten times higher (300 μg/kg) to adjust for the difference in in vivo potency.

[2] = Cynomolgus monkey pharmacokinetic study; type: in vivo, cynomolgus monkeys; settings: 0.75 mg/kg
Procedure: Pharmacokinetics studies of teduglutide, GLP-2 Peptibody B and GLP-2 Peptibody K were formed in cynomolgus monkeys with citrulline assayed as a biomarker of GLP-2 concentration. In the study, 12.5 nmol/kg teduglutide was administered subcutaneously to a group of 6 male cynomolgus monkeys at day 1. Then for one set of 2 monkeys, 25 nmol/kg GLP-2 Peptibody B was administered intravenously at day 7, day 21, day 28, day 35, and day 42. For another set of 3 monkeys, 25 nmol/kg GLP-2 Peptibody B was administered subcutaneously at day 7, day 21, day 28, day 35, and day 42. For another set of monkeys, 5 nmol/kg GLP-2 Peptibody K was administered intravenously (2 monkeys) and subcutaneously (3 monkeys) at day 7, day 21, day 28, day 35, and day 42. For another set of monkeys, 25 nmol/kg GLP-2 Peptibody K was administered subcutaneously (3 monkeys) and intravenously (2 monkeys) at day 7, day 21, day 28, day 35, and day 42.

[3] = biological target: T1, hFcRn (extracellular domain of the FcRN) (Homo sapiens, UniProt P55899); assay: FcRn binding by surface plasmon resonance (Biacore); settings: for Kd: pH 5.5
T1 construct: made in house
T1 sequence (P55899 24-297 limits assumed): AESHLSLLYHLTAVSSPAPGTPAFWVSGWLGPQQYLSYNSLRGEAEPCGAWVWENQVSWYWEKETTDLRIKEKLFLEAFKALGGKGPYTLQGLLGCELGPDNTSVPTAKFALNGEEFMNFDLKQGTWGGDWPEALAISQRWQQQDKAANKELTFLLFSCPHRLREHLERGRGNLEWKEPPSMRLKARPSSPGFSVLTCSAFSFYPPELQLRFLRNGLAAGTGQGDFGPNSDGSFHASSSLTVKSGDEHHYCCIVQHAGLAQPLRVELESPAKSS
T1 sequence (P61769 21-119 partner): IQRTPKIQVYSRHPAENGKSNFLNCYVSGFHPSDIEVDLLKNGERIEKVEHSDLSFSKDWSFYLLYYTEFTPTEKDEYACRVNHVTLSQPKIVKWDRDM
From the text: Binding to the Fc neonatal receptor (FcRN) allows for recycling of the molecules and leads to an extended in vivo serum half-life of the Fc fusion proteins. Recycling occurs as the molecules are passively taken into the cells and the pH of the endosomes is lower. That leads to binding of the Fc portion of the molecule to the FcRN. When the FcRN recycles back to the surface of the cell, the pH is then neutral and the protein is released back into the serum.
Binding to the extracellular domain of the FcRN was measured by surface plasmon resonance (SPR) using a Biacore system. Direct immobilization with FcRn was achieved via amine coupling of a CM5 chip with FcRn under the following conditions: • i) hFcRn (expressed and purified in house) is diluted in Acetate buffer pH 5.0 to 5 μg/mL. • ii) Immobilize 5 μg/mL of FcRn with target of 500 RU on CM5 chip in PBS pH 7.0 • iii) Final response 454 RU • iv) Running buffer: PBS-P+, pHed to 5.5
The kinetic binding study was done using the following protocol. Samples were diluted in PBS-P+ to 50, 25, 12.5, 6.25, 3.125, 1.56, 0.78, 0.39, 0 nM. The parameters were set as follows: • i) Association and Dissociation 300 s at Flow rate 30 μL/min • ii) Regeneration with 25 mM Tris, 150 mM NaCl pH 8.0 40 s at 60 μL/min
A measurement of the binding of the GLP-2 peptibodies to the Fc neonatal receptor (FcRN) was undertaken at pH 5.5 and pH 7.4.

[4] = SEC-MALS (Sepax Zenix C-150) peak distribution; type: physicochemical
Procedure: A SEC-MALS assay was performed to determine the primary state (main peak) and its molecular weight. […] The GLP-2 peptibody O (albumin fusion) eluted at a molecular weight indicative of a monomer.
(§1) Stability analysis was then performed using SEC-MALS and NanoDSF. For SEC-MALS, a Sepax Zenix C-150 column was used. The mobile phase buffer was 1× PBS with a final concentration of 400 mM NaCl. The flow rate was 0.8 mL per minute. 20 micrograms of total protein was injected. For NanoDSF, 10 microliters of sample was used, without normalization of the samples.
as §1

[5] = Rat pharmacokinetics, intravenous dosing; type: in vivo, Sprague-Dawley rats; settings: single dose 1 mg/ml
Procedure: (§2) In the rat, four pharmacokinetic parameters were measured for Gattex® (a GLP-2 peptide having the A2G mutation): CL, Vc, Vt and Q. The same pharmacokinetic parameters were also measured for GLP-2 peptibodies A, B, E, J, K, L, M, O and P. The data is shown in Table 4. Male Sprague-Dawley rats (3 animals per group) were injected intravenously either via a jugular vein or tail vein catheter. A singles dose of test article was injected at a dose level of 1 mg/ml. The test articles were formulated in PBS pH 7.4 at a concentration of Blood samples were taken 0.083, 0.167, 0.33, 0.5, 1, 2, 6, 24, 48, 72, 120, 168, 240, and 336 hours post dose. Blood samples were collected into heparinized tubes and centrifuged for 5 minutes at 2000 xg within 10 minutes of collection. 100 μL of plasma were transferred to a 1.5 ml Eppendorf tube containing 2 μL of 50 mM PMSF. After mixing, the plasma samples were frozen at −80° C. until analysis.

[6] = NanoDSF melting temperature / thermal stability; type: physicochemical; settings: for NanoDSF melting temperature 1: first transition; for NanoDSF melting temperature 2: second transition
Procedure: Each of the GLP-2 peptibodies was tested by determining melting temperature with nanodifferential scanning fluorimetry (NanoDSF). NanoDSF is a measurement of protein stability over a range of temperatures, with a temperature ramp employed. The stability of tryptophan is measured by fluorescence, as reflected in a ratio of fluorescence at 350 nm to fluorescence at 330 nm. From the assay, one or more melting temperatures are determined. Because a protein in a certain state is understood to have a melting temperature, the number of melting temperatures observed reflects the number of different states.
as §1, §1

[7] = Rat pharmacokinetics, subcutaneous dosing; type: in vivo, Sprague-Dawley rats; settings: single dose 1 mg/ml
Procedure: as §2, with “5.” for “4.”, “subcutaneously into the intra-scapular region of the animal.” for “intravenously either via a jugular vein or tail vein catheter.”, “[…]” for “1.5”, “mixing” for “mixing,”, “analysis. Meso Scale Discovery (MSD) ELISA was undertaken to assay for the concentration of the GLP-2 peptibodies.” for “analysis.”
A sandwich immunoassay was developed using either an anti-Human IgG1 Fc antibody or an anti-human albumin antibody for capture of the peptibody and a sulfotag labeled anti GLP-2 antibody for detection.

With “GLP-2 peptibody B: GLP-2[A2G]-GGGGG linker-IgG1 Fc (LALA) with C-terminal lysine; SEQ ID NO: 4” the Vc [1] was 0.0494 L/kg, the Vt [1] was 0.0425 L/kg and the ka [1] was 2.43 day⁻¹. The “CL (value in parentheses)” value ([1]; exponent on CL 0.85, monkey 3.5 kg, human 70 kg) was 1.04 mL/h/kg, the CL ([1]; first value of cell) was 1.63 mL/h/kg and the F ([1]; first value of cell) was 98%. For the same substance, the Q ([1]; first value of cell) was 1 mL/h/kg, the “F (value in parentheses)” value ([1]; value in parentheses) was 60% and the “Q (value in parentheses)” value ([1]; value in parentheses) was 0.642 mL/h/kg. The CL ([2]; MDPK, intravenous) was 0.417 mL/h/kg, the Q ([2]; MDPK, intravenous) was 1.2 mL/h/kg and the Vc ([2]; MDPK, intravenous) was 0.0187 L/kg. For the same substance, the Vt ([2]; MDPK, intravenous) was 0.0329 L/kg, the CL/F ([2]; MDPK, subcutaneous) was 0.737 mL/h/kg and the Vc ([2]; MDPK, subcutaneous) was 0.094 L/kg. The “association constant (ka)” value ([2]; MDPK, subcutaneous) was 1.59 day⁻¹, the CL ([2]; SDPK, intravenous) was 0.396 mL/h/kg and the Q ([2]; SDPK, intravenous) was 1.11 mL/h/kg. The Vc ([2]; SDPK, intravenous) was 0.0171 L/kg, the Vt ([2]; SDPK, intravenous) was 0.0276 L/kg and the CL/F ([2]; SDPK, subcutaneous) was 0.737 mL/h/kg. For the same substance, the Vc ([2]; SDPK, subcutaneous) was 0.0924 L/kg, the “association constant (ka)” value ([2]; SDPK, subcutaneous) was 1.52 day⁻¹ and the Kd [3] was 1.7 nM. The “FcRN KD at pH 7.4” value [3] was “No binding in range tested”, the “SEC-MALS Zenix C-150 main peak” value [4] was 85% main peak, 158,800 g/mol and the CL [5] was 2 mL/h/kg. For the same substance, the Q [5] was 2.42 mL/h/kg, the Vc [5] was 0.031 L/kg and the Vt [5] was 0.076 L/kg. The “NanoDSF melting temperature 1” value [6] was 1 = 67.1 °C, the “NanoDSF melting temperature 2” value [6] was 2 = 79.9 °C and the CL [7] was 1.79 mL/h/kg. The Q [7] was 2.17 mL/h/kg, the Vc [7] was 0.073 L/kg and the Vt [7] was 0.068 L/kg. For the same substance, the ka [7] was “B (0.45 ka/day,”.
With “GLP-2 peptibody L: GLP-2[A2G]-GGGGGGG linker-IgG1 Fc (LALA); SEQ ID NO: 22” the Kd [3] was 1.72 nM, the “FcRN KD at pH 7.4” value [3] was “No binding in range tested” and the “SEC-MALS Zenix C-150 main peak” value [4] was 87.4% main peak, 148,000 g/mol. The CL [5] was 2.8 mL/h/kg, the Q [5] was 0.792 mL/h/kg and the Vc [5] was 0.0378 L/kg. For the same substance, the Vt [5] was 0.538 L/kg, the “NanoDSF melting temperature 1” value [6] was 1 = 67.5 °C and the “NanoDSF melting temperature 2” value [6] was 2 = 80 °C. For the same substance, the CL [7] was 3.36 mL/h/kg, the Vc [7] was 0.127 L/kg and the ka [7] was “L (0.63 ka/day,”.
